Test results from the supplement of paper PMC9170038.

Tested on: MS2 coat protein
Assay: apparent KD of MS2 coat protein; designed switch direction (-1 OFF switch, 1 ON switch): 1; higher = weaker reporter binding
In short: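 RNA switches sharing common flanks were transcribed by stalled E. coli RNA polymerase on Illumina chips. A doubling series of SNAP-549-labelled MS2 coat protein, from 0.7 or 1.5 nM to 3 µM, was applied in Tris-HCl pH 7.5 buffer with KCl, MgCl2, BSA, DTT, tRNA and Tween-20. Each step lasted 0.8–1.5 h at the bottom of the series and 10–20 min at the top. Normalised cluster fluorescence was curve-fitted, giving apparent KD as the per-design median over clusters.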

[1] = Eterna round: R95, input ligand: FMN 200 uM
[2] = Eterna round: R95, input ligand: microRNA oligo, concentration not stated
[3] = Eterna round: R95, input ligand: none
[4] = input ligand: microRNA oligo, concentration not stated

## AGUCCAGCCUGAGCUGGACAAAAGCAUGUACAUGAGGAUCACCCAUGUCAUGUGCAAGCUUUUUGCUCGUCUUAAAA [Zipper 46 - 6] (puzzle: Sensor for hsa-mir-208a)
[1]
  apparent KD of MS2 coat protein: 61 nM
[2]
  apparent KD of MS2 coat protein: 11.6 nM
[3]
  apparent KD of MS2 coat protein: 67.9 nM

## GUUACAUGAGGAUCACCCAUGUAUGUGUGGGAGUAAGUGUCUUAGGAUAUCUAUUAUUUAAGUUAAGAGAAGGAAGAUUGUUGU [JMF's solution 23] (Eterna round: R96, puzzle: Same State NG 3)
Input ligand: FMN 200 uM
  apparent KD of MS2 coat protein: 121 nM
[4]
  apparent KD of MS2 coat protein: 94.7 nM
Input ligand: none
  apparent KD of MS2 coat protein: 114 nM

## ACAAGACAUGAGGAUCACCCAUGUAUAAAUUACACAGGAUAUCGGUGGGCCGCGCCUACACGAGAAGGGUGACUUC [Gere] (puzzle: Same State 1)
[1]
  apparent KD of MS2 coat protein: 77 nM
[2]
  apparent KD of MS2 coat protein: 33.4 nM
[3]
  apparent KD of MS2 coat protein: 35.5 nM

## GAAACAUGACGAGGAUAUGGUACAUGAGGAUCACCCAUGUAUGUACCACGACGCGUACGUCGAAUCCAGAAGGCGUCGUGAAAG [Mat - Same State NG 2 - JL mod - D20] (Eterna round: R96, puzzle: Same State NG 2)
Input ligand: FMN 200 uM
  apparent KD of MS2 coat protein: 27.8 nM
[4]
  apparent KD of MS2 coat protein: 51.1 nM
Input ligand: none
  apparent KD of MS2 coat protein: 86.4 nM

## GUAGCAUACCGAGGAUAUUCAUAACAUGAGGAUCACCCAUGUUAGGCCAGCAUUAGCUGGCCUUGGGAGAAGGCGGAAUGCUAC [Xeonanis - 20 Mod52] (Eterna round: R96, puzzle: Same State NG 2)
Input ligand: FMN 200 uM
  apparent KD of MS2 coat protein: 17.5 nM
[4]
  apparent KD of MS2 coat protein: 14.5 nM
Input ligand: none
  apparent KD of MS2 coat protein: 22.2 nM

## AUUGCUUACGCAGGAUAUGAUGCGAAAAUUGCGUCAGAAGGGUGAAGUAACUCAUUGCAACAGGACAUGAGGAUCACCCAUGUC [SameState NG1 #89] (Eterna round: R96, puzzle: Same State NG 1)
Input ligand: FMN 200 uM
  apparent KD of MS2 coat protein: 105 nM
[4]
  apparent KD of MS2 coat protein: 250 nM
Input ligand: none
  apparent KD of MS2 coat protein: 681 nM

## AGGGCCGCGGCACAGGAUAUGCACAGGUUCACAUGAGGAUCACCCAUGUGCUCUAGAUAACUUAAGCAGAAGGGUGUCAUGGUAA [Biarrace] (puzzle: Same State 2)
[1]
  apparent KD of MS2 coat protein: 11.2 nM
[2]
  apparent KD of MS2 coat protein: 12 nM
[3]
  apparent KD of MS2 coat protein: 14.1 nM

## AGUCCAGCCUGAGCUGGACAAAUGCAUGUACAUGAGGAUCACCCAUGUUCAUGUACAAGCAUUUUGCUCGUCUUAAA [Sensor for hsa-mir-208a (JL zipper 55 mod - 61 to A)] (Eterna round: R96, puzzle: Sensor for hsa-mir-208a)
Input ligand: FMN 200 uM
  apparent KD of MS2 coat protein: 330 nM
[4]
  apparent KD of MS2 coat protein: 13.5 nM
Input ligand: none
  apparent KD of MS2 coat protein: 346 nM

## GGGCAGAGGGACAAGGAUAUGUCAGGAGAGACAUGAGGAUCACCCAUGUGGAGGUUGGAGCAGAGACAGAAGGUGUACGGAGCGA [JR_SS2_Sub011] (puzzle: Same State 2)
[1]
  apparent KD of MS2 coat protein: 34.4 nM
[2]
  apparent KD of MS2 coat protein: 105 nM
[3]
  apparent KD of MS2 coat protein: 107 nM

## CCAUAACAGUGAGGAUAUCGUUGCGAUAAGUGACGAGAAGGCAUUCAUGUGAAAUAAACAUACAUGAGGAUCACCCAUGUUGUA [Omei SS(NG)1 B] (Eterna round: R96, puzzle: Same State NG 1)
Input ligand: FMN 200 uM
  apparent KD of MS2 coat protein: 18.2 nM
[4]
  apparent KD of MS2 coat protein: 17.1 nM
Input ligand: none
  apparent KD of MS2 coat protein: 20.6 nM

## GCCAUCGCAUGAGGAUAUGGCACCGAAACGGUGCCAGAAGGCAUGUCGAAUGACAUGAGGAUCACCCAUGUAGUAUAGAUGGCA [Mat - Same State NG 1 - JL mod - D92] (Eterna round: R96, puzzle: Same State NG 1)
Input ligand: FMN 200 uM
  apparent KD of MS2 coat protein: 52.9 nM
[4]
  apparent KD of MS2 coat protein: 571 nM
Input ligand: none
  apparent KD of MS2 coat protein: 628 nM

## AACAAUCUAUCUGAGGAUAUCAUGAAAAAAACAUGAGGAUCACCCAUGUGCAGGAAAACUGCAUAUGAGAAGGCAGAUAGAUUGA [salish99_SS2_r3_001] (puzzle: Same State 2)
[1]
  apparent KD of MS2 coat protein: 20.6 nM
[2]
  apparent KD of MS2 coat protein: 484 nM
[3]
  apparent KD of MS2 coat protein: 741 nM

## GUUAGGAAUCUAGCAGACAUGAGGAUCACCCAUGUUAGUGGGAAGGAUAUGGUACAGAAACUGUACCAGAAGGUCUUAUUGUUU [Omei SS(NG) 3 AV13] (Eterna round: R96, puzzle: Same State NG 3)
Input ligand: FMN 200 uM
  apparent KD of MS2 coat protein: 348 nM
[4]
  apparent KD of MS2 coat protein: 398 nM
Input ligand: none
  apparent KD of MS2 coat protein: 690 nM

## GUAACAUGACGAGGAUAUGGAACAUGAGGAUCACCCAUGUAUGUUCCAUAACGCGAAUGACGAAUCCAGAAGGCGUCGUGAAUG [Mat - Same State NG 2 - JL mod - D29] (Eterna round: R96, puzzle: Same State NG 2)
Input ligand: FMN 200 uM
  apparent KD of MS2 coat protein: 41.7 nM
[4]
  apparent KD of MS2 coat protein: 124 nM
Input ligand: none
  apparent KD of MS2 coat protein: 220 nM

## UGUUGUUACGCAGGAUAUGGUCACAUGAGGAUCACCCAUGUAUUGUCGAUGCUAUGUGGAUUUGAUCAGAAGGGCGGGUUAACA [SameState NG2 #100] (Eterna round: R96, puzzle: Same State NG 2)
Input ligand: FMN 200 uM
  apparent KD of MS2 coat protein: 63.8 nM
[4]
  apparent KD of MS2 coat protein: 88.9 nM
Input ligand: none
  apparent KD of MS2 coat protein: 103 nM

## AGUGGAGCCUGAGCUCCACAAAAGCAUGUACAUGAGGAUCACCCAUGUCAUGUACAAGCUUUUUGCUCGUCUUAAAA [Mat - hsa-mir-208a - Mod of JL - D18] (Eterna round: R96, puzzle: Sensor for hsa-mir-208a)
Input ligand: FMN 200 uM
  apparent KD of MS2 coat protein: 552 nM
[4]
  apparent KD of MS2 coat protein: 14 nM
Input ligand: none
  apparent KD of MS2 coat protein: 502 nM

## ACAUGAGGGUGAGGAUAUUGGAACUCACCUGACAUGAGGAUCACCCAUGUUCAAUGAGGAUCACCCAAGAAGGCACGUUGUGGA [Same State NG2 S3] (Eterna round: R96, puzzle: Same State NG 2)
Input ligand: FMN 200 uM
  apparent KD of MS2 coat protein: 29.2 nM
[4]
  apparent KD of MS2 coat protein: 24 nM
Input ligand: none
  apparent KD of MS2 coat protein: 36.2 nM

## UAAAGAUCGCGAGGAUAUCGCGAGGAUCACCCGUGAGAAGGCGCAGAGCCGAGGAUCACCCGGCUGAUCCUGAGGAGGAGGUCU (Eterna round: R96, puzzle: Same State NG 1)
Input ligand: FMN 200 uM
  apparent KD of MS2 coat protein: 124 nM
[4]
  apparent KD of MS2 coat protein: 202 nM
Input ligand: none
  apparent KD of MS2 coat protein: 318 nM

## GAGCCAGUCCGAGGAUAUUCAUAUACAUGAGGAUCACCCAUGUAGGCUCAGAAAAGAGAGCCUUGGGAGAAGGCGGACUGGCUC [Xeonanisa<<4] (Eterna round: R96, puzzle: Same State NG 2)
Input ligand: FMN 200 uM
  apparent KD of MS2 coat protein: 8.38 nM
[4]
  apparent KD of MS2 coat protein: 27.3 nM
Input ligand: none
  apparent KD of MS2 coat protein: 50.8 nM

## AGUCCAGCCUGAGCUGGACUGAAGCAUGUACAUGAGGAUCACCCAUGUUCAUGUACAGGCUUUUUGCUCGUCUUAUG [JL-shm-2.02 JL mod] (Eterna round: R96, puzzle: Sensor for hsa-mir-208a)
Input ligand: FMN 200 uM
  apparent KD of MS2 coat protein: 619 nM
[4]
  apparent KD of MS2 coat protein: 14.6 nM
Input ligand: none
  apparent KD of MS2 coat protein: 676 nM

## GAAUAGUUGAGAGGAUAUGGAUUAUUGUAGGAUCCAGAAGGUUUUAACAUGAGGAUCACCCAUGUAGGACUAUAUAUGUGAAUA [Parity 97 - Jieux - Same State NG 1] (Eterna round: R96, puzzle: Same State NG 1)
Input ligand: FMN 200 uM
  apparent KD of MS2 coat protein: 13.1 nM
[4]
  apparent KD of MS2 coat protein: 11.7 nM
Input ligand: none
  apparent KD of MS2 coat protein: 19.5 nM

## ACCCGCGGGCCACAUGAGGAUCACCCAUGUGACCGGUGAUCCAAGGAUAUACGUGUCAUUGACGCGUAGAAGGUGGCCAAAACA [Ersooned] (Eterna round: R96, puzzle: Same State NG 3)
Input ligand: FMN 200 uM
  apparent KD of MS2 coat protein: 49.2 nM
[4]
  apparent KD of MS2 coat protein: 22.7 nM
Input ligand: none
  apparent KD of MS2 coat protein: 28.8 nM

## AGUCCAGCAUGAGCUGGACAAAAGCAUGUACAUGAGGAUCACCCAUGUUCAUGUACAAGCUUUUUGCUCGUCUUAAU [Mat - hsa-mir-208a - Mod of JL - 61] (puzzle: Sensor for hsa-mir-208a)
[1]
  apparent KD of MS2 coat protein: 549 nM
[2]
  apparent KD of MS2 coat protein: 15.9 nM
[3]
  apparent KD of MS2 coat protein: 698 nM

## AGUCCAGCCUGAGCUGGACAAAAGCAUGUACAUGAGGAUCACCCAUGUUCAUGUACAAGCUUUUUGCUCGUCUUAAC [salish99_208a_r3_029] (puzzle: Sensor for hsa-mir-208a)
[1]
  apparent KD of MS2 coat protein: 553 nM
[2]
  apparent KD of MS2 coat protein: 16.8 nM
[3]
  apparent KD of MS2 coat protein: 636 nM

## GCGAGCGUACUUGCUACAUGAGGAUCACCCAUGUUUAUUGGACAGGAUAUGGUACCGUUUCGGUACCAGAAGGGUUCAUCAUGU [JL SSNG3 3.70] (Eterna round: R96, puzzle: Same State NG 3)
Input ligand: FMN 200 uM
  apparent KD of MS2 coat protein: 294 nM
[4]
  apparent KD of MS2 coat protein: 471 nM
Input ligand: none
  apparent KD of MS2 coat protein: 547 nM

## GAGUAGUUGGGAGGAUAUGCAUUGUUAUUAAAUGCAGAAGGUUUUAACAUGAGGAUCACCCAUGUAGGACUAUUCCUGUGUAUC [Parity 70 - Jieux - Same State NG 1] (Eterna round: R96, puzzle: Same State NG 1)
Input ligand: FMN 200 uM
  apparent KD of MS2 coat protein: 17.3 nM
[4]
  apparent KD of MS2 coat protein: 13.7 nM
Input ligand: none
  apparent KD of MS2 coat protein: 17.1 nM

## UCUUGGUUUUUGCUCGUUUUUUGUGUUGAACAUGAGGAUCACCCAUGUAUUGUACAAUCCAAUUUAAUAAUGGUCCA [Mod of one of JR's submissions 3] (puzzle: Sensor for hsa-mir-208a)
[1]
  apparent KD of MS2 coat protein: 44.2 nM
[2]
  apparent KD of MS2 coat protein: 42.2 nM
[3]
  apparent KD of MS2 coat protein: 47.8 nM

## GCUCGAAUCAAAACCAACAUGAGGAUCACCCAUGUAUGUUGGUAGGAUAUCGUUUGUAAAACAAACGAGAAGGGCCAAACGAGC [SameState NG3 #4] (Eterna round: R96, puzzle: Same State NG 3)
Input ligand: FMN 200 uM
  apparent KD of MS2 coat protein: 53 nM
[4]
  apparent KD of MS2 coat protein: 93.3 nM
Input ligand: none
  apparent KD of MS2 coat protein: 118 nM

## GAAACAUGACGAGGAUAUGGAACAUGAGGAUCACCCAUGUAUGUUCCAUAACGCGAAUGACGAAUCCAGAAGGCGUCGUGAAAG [Mat - Same State NG 2 - JL mod - D28] (Eterna round: R96, puzzle: Same State NG 2)
Input ligand: FMN 200 uM
  apparent KD of MS2 coat protein: 33.6 nM
[4]
  apparent KD of MS2 coat protein: 177 nM
Input ligand: none
  apparent KD of MS2 coat protein: 233 nM
